B1: Protein S100-G, P02633 (parent)
chain: MSAKKSPEELKGIFEKYAAKEGDPNQLSKEELKLLLQTEFPSLLKGPSTLDELFEELDKNGDGEVSFEEFQVLVKKISQ

Variants of B1 are the subject of the data set. The settings on record: Bos taurus; pH 7; 25 °C; Urea; CD; PIPES-KOH 20 mM; reversible: yes; structure 1IGV; whole UniProt chain shown.

MSAKKSPEELKGIFEKYAAKQGDPNQLSKEELKLLLQTEFPSLLKGPSTLDELFEELDKNGDGEVSFEEFQVLVKKISQ [E21Q]: the “ddG of mutation (higher = less stable)” value was -0.38 kcal/mol, the “denaturant midpoint (higher = more stable)” value stood at 5.6 M and the unfolding free energy was determined as 0.67 kcal/mol.
For MSAKKSPEELKGIFEKYAAKQGNPNQLSKEELKLLLQTEFPSLLKGPSTLDELFEELDKNGDGEVSFEEFQVLVKKISQ [E21Q D23N], in that order: -1.19 kcal/mol, 6.2 M and 1.48 kcal/mol.
Take MSAKKSPEELKGIFEKYAAKEGNPNQLSKQELKLLLQTEFPSLLKGPSTLDELFEELDKNGDGEVSFEEFQVLVKKISQ [D23N E30Q]: the “ddG of mutation (higher = less stable)” value is -0.52 kcal/mol, the “denaturant midpoint (higher = more stable)” value worked out at 5.8 M and the unfolding free energy was found to be 0.81 kcal/mol.
For MSAKKSPEELKGIFEKYAAKQGNPNQLSKQELKLLLQTEFPSLLKGPSTLDELFEELDKNGDGEVSFEEFQVLVKKISQ [E21Q D23N E30Q], in that order: -0.93 kcal/mol, 6.1 M and 1.22 kcal/mol.

(Values after FireProtDB (doi:10.1002/prot.340080106).)
